B1: Azoarcus group I ribozyme (parent)
chain: GUGCCUUGCGCCGGGAAACCACGCAAGGGAUGGUGUCAAAUUCGGCGAAACCUAAGCGCCCGCCCGGGCGUAUGGCAACGCCGAGCCAAGCUUCGGCGCCUGCGCCGAUGAAGGUGUAGAGACUAGACGGCACCCACCUAAGGCAAACGCUAUGGUGAAGGCAUAGUCCAGGGAGUGGCGAAAGUCACACAAACCGG

In the series the parent is B1. The series can be described thus: reverse-splicing fitness (ratio to wild type); higher = more active; in vitro selection; Mg2+ level not given. The method, boiled down: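 An in vitro group I ribozyme library with randomized positions was T7-transcribed and gel-purified. In triplicate, 10 pmol RNA in EPPS pH 7.5 was reacted with 50 pmoles of a 30-nt RNA substrate for 1 h at 37 °C across several added MgCl2 levels (1–48 mM), then stopped with EDTA. Products were reverse transcribed from a substrate-complementary primer, PCR-amplified and sequenced (HiSeq 4000). Fitness is a variant's read proportion after selection over that before, normalised to wild type.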
On to C82U A111U A145C C150G U176C, for which the reverse-splicing fitness is 0.0175.
The same measure for C82U A111U A120U C150A C169A U176A: 0.00372.
With C82U A111U A120U C150A C169A U176G the figure was 0.00224.
Regarding C82U A111U A120U C150A C169A U176C, the reverse-splicing fitness amounted to 0.00306.
The same measure for C82U A111U A120U A145C C150U U176C: 0.00469; for C82U A111U A120U A145C C150U U176G: 0.0026; for C82U A111U A120U A145C C150U U176A: 0.00399.
The same measure for C82U A111U A145C C150G C169A U176G: 0.006; for C82U A111U A145C C150G C169A U176C: 0.0066; for C82U A111U A145C C150G C169A U176A: 0.00853.
The same measure for C82U A111U A120U C150A C169G U176G: 0.0026.
Take C82U A111U A120U C150A C169G U176C: the reverse-splicing fitness is 0.00448.
With C82U A111U A120U C150A C169G U176A the figure was 0.00758; with C82U A111U A145C C169G U176G, 0.00539; with C82U A111U A145C C169G U176C, 0.0126.
With C82U A111U A145C C169G U176A the figure was 0.0234; with C82U A111U A120U U176G, 0.00321.
With C82U A111U A120U U176A, the reverse-splicing fitness is 0.00769.
Consider C82U A111U A120U U176C, for which the reverse-splicing fitness came to 0.0117.
The same measure for C82U A111U A120U C169U U176A: 0.00357.
The same measure for C82U A111U A120U C169U U176G: 0.0019; for C82U A111U A120U C169U U176C: 0.00325; for C82U A111U A120U C150A U176A: 0.00551.
With C82U A111U A120U C150A U176G the figure was 0.00299; with C82U A111U A120U C150A U176C, 0.00596; with C82U A111U A145C C150A C169A U176C, 0.00618.
As for C82U A111U A145C C150A C169A U176A, the reverse-splicing fitness was 0.00998.
The same measure for C82U A111U A145C C150A C169A U176G: 0.00585.
The same measure for C82U A111U A145G C150U C169G U176C: 0.0174.
The same measure for C82U A111U A145G C150U C169G U176A: 0.0133; for C82U A111U A145G C150U C169G U176G: 0.00598.
C82U A111U A120U A145G C150G U176C: the reverse-splicing fitness was 0.00721.
With C82U A111U A120U A145G C150G U176A the figure was 0.00562; with C82U A111U A120U A145G C150G U176G, 0.00324.
With C82U A111U A120U A145C C150U the figure was 0.00815; with C82U A111U A120U A145U C150G C169G U176A, 0.0029; with C82U A111U A120U A145U C150G C169G U176G, 0.00209.
The same measure for C82U A111U A120U A145U C150G C169G U176C: 0.00288.
With C82U A111U A120U A145U C150A U176A, the reverse-splicing fitness amounted to 0.00357.
In the case of C82U A111U A120U A145U C150A U176G, the reverse-splicing fitness turned out to be 0.00252.
The same measure for C82U A111U A120U A145U C150A U176C: 0.00477; for C82U A111U A120U C150A C169U U176G: 0.00301; for C82U A111U A120U C150A C169U U176C: 0.00379.
The same measure for C82U A111U A120U C150A C169U U176A: 0.0059; for C82U A111U A145G C150U C169U: 0.0113; for C82U A111U A145G C150U C169A: 0.0102.
The same measure for C82U A111U A145G C150U C169G: 0.00883; for C82U A111U A145C C169U U176A: 0.0134; for C82U A111U A145C C169U U176C: 0.0103.
For the variant C82U A111U A145C C169U U176G, the reverse-splicing fitness worked out at 0.00463.
In the case of C82U A111U A145C C150G C169G U176A, the reverse-splicing fitness came to 0.00901.
The same measure for C82U A111U A145C C150G C169G U176C: 0.00693; for C82U A111U A145C C150G C169G U176G: 0.00581.
With C82U A111U A120U A145U C150U C169A U176A the figure was 0.00292; with C82U A111U A120U A145U C150U C169A U176G, 0.00202.
The same measure for C82U A111U A120U A145U C150U C169A U176C: 0.00275.
C82U A111U A145G C150U: the reverse-splicing fitness turned out to be 0.235.
With C82U A111U A145G C150G, the reverse-splicing fitness worked out at 0.0326.
With C82U A111U A145G C150A, the reverse-splicing fitness worked out at 0.0405.
With C82U A111U A120U A145G C150U U176C, the reverse-splicing fitness worked out at 0.0115.
The same measure for C82U A111U A120U A145G C150U U176G: 0.00322; for C82U A111U A120U A145G C150U U176A: 0.00787.
With C82U A111U A120U C150U C169G U176C the figure was 0.00317.
The same measure for C82U A111U A120U C150U C169G U176A: 0.00732; for C82U A111U A120U C150U C169G U176G: 0.00205; for C82U A111U A120U A145G C150A C169A U176G: 0.00245.
Turning to C82U A111U A120U A145G C150A C169A U176C, the reverse-splicing fitness is 0.00382.
For the variant C82U A111U A120U A145G C150A C169A U176A, the reverse-splicing fitness came out at 0.0063.
The same measure for C82U A111U A120U A145G C169A: 0.0029; for C82U A111U A120U A145G C169U: 0.00389.
The same measure for C82U A111U A120U A145G C169G: 0.00363; for C82U A111U A120U A145C C150U C169U U176A: 0.00211.
The same measure for C82U A111U A120U A145C C150U C169U U176C: 0.00256.
C82U A111U A120U A145C C150U C169U U176G: the reverse-splicing fitness is 0.00212.
With C82U A111U A120U A145C C150U C169A the figure was 0.0022; with C82U A111U A120U A145C C150U C169G, 0.00276; with C82U A111U A120U A145C C150U C169U, 0.00288.
As to C82U A111U A120U A145G C169A U176G, the reverse-splicing fitness was 0.00171.
The same measure for C82U A111U A120U A145G C169A U176A: 0.00289.
With C82U A111U A120U A145G C169A U176C the figure was 0.00291; with C82U A111U A120U C150A C169G, 0.0044; with C82U A111U A120U C150A C169A, 0.00469.
The same measure for C82U A111U A120U C150A C169U: 0.00428.
Take C82U A111U A120U C169U: the reverse-splicing fitness was found to be 0.00477.
